According to PMC6239180:

Columns and labels:
[1] = target: T1, hPcf11 (CF II subunit);hClp1 (CF II subunit or alone) (human;human, UniProt O94913;Q92989 1-1555;1-425, |); test: EMSA
[2] = target: T1, hPcf11 (CF II subunit);hClp1 (CF II …); test: UV cross-linking and immunoprecipitation

T1 sequence (O94913 whole entry, chain 1 of 2): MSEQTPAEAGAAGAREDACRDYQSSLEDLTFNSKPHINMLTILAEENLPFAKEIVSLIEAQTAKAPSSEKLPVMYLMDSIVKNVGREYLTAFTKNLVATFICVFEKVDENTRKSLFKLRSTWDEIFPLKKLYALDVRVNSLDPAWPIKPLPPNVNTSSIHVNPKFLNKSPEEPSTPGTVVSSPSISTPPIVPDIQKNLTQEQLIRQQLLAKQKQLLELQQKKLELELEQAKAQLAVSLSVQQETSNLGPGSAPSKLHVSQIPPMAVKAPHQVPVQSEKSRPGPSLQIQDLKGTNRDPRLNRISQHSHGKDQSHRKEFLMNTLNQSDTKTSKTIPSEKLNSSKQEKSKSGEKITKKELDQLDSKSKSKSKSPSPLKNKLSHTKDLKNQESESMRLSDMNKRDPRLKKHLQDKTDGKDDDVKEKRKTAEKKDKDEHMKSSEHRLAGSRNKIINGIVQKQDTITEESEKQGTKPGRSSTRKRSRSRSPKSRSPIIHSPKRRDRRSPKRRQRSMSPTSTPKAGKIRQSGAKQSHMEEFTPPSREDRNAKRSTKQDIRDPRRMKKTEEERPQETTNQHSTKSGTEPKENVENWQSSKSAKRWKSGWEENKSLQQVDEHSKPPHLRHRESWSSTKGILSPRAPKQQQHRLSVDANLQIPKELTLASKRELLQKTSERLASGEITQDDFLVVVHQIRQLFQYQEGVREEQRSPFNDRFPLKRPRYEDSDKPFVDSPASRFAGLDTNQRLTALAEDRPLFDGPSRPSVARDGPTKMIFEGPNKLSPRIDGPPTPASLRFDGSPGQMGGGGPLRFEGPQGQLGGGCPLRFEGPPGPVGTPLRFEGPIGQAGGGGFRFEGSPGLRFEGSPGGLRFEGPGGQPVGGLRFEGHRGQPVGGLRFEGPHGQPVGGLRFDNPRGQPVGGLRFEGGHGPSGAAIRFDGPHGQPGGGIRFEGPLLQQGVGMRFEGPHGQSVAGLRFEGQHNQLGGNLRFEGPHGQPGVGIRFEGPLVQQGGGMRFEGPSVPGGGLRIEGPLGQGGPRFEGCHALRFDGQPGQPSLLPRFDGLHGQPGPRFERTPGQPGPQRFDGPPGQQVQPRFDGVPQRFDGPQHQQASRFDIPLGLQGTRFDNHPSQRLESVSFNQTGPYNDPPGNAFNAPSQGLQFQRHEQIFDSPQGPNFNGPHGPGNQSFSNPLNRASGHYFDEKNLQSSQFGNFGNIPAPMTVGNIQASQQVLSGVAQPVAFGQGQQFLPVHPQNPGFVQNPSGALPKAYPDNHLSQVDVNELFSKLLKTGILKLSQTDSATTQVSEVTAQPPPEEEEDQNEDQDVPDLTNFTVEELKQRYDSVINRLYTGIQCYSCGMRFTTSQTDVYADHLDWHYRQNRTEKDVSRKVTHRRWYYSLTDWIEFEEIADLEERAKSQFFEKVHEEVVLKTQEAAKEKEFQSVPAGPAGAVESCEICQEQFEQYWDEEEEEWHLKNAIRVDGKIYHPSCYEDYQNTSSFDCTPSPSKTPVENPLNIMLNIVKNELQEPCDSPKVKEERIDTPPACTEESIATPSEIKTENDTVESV
T1 sequence (Q92989 whole entry, chain 2 of 2): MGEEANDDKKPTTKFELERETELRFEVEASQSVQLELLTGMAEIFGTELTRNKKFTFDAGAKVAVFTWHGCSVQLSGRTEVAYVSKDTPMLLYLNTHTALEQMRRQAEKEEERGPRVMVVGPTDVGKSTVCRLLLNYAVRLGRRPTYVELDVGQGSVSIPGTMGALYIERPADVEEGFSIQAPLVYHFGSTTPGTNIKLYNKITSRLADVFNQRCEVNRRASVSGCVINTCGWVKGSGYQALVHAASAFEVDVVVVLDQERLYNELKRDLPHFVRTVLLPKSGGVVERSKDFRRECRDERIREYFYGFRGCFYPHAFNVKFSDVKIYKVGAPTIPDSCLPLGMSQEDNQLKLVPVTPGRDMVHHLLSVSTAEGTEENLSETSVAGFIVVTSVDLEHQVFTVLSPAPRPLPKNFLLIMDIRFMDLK

| Binder | Kd [1] | binding result [2] |
| --- | --- | --- |
| GGGGGGGGGGGGGG (ssRNA) [G14] | ~2 nM | – |
| UUUUUUUUUUUUUU (ssRNA) [U14] | – | binds |
